Data on eight molecules can be found in PMC6978801, “Structural Basis of Teneurin-Latrophilin Interaction in Repulsive Guidance of Migrating Neurons” (Cell, 2020).

The target in assay [1] is Lphn1 on K-562 cells (UniProt Q80TR1). As to the kind of experiment: K-562 cell aggregation assay. Conditions: n = 3; parent: est. 56; read off a plot.
The target in assay [2] is murine Latrophilin 1 ectodomain (mLphn1 ecto) (mouse) (UniProt Q80TR1). As to the kind of experiment: SPR; Biacore T200, equilibrium binding at 25 °C, PBS + 0.005% polysorbate 20 pH 7.5; Latrophilin constructs biotinylated at a C-terminal Avi-tag and coupled to a streptavidin-coated CM5 chip (670-730 RU ecto, 220 RU Lec-Olf); Ten2 ectodomains injected; apparent KD from a 1:1 Langmuir fit, analyte concentration calculated as monomer; Teneurin is dimeric, values indicative only.

The target in assay [3] is murine Latrophilin 3 ectodomain (mLphn3 ecto) (mouse) (UniProt Q80TS3). The assay is described as above.
Assay [4] concerns the target murine Latrophilin 2 ectodomain (mLphn2 ecto) (mouse) (UniProt Q8JZZ7). Described as above.
The target of assay [5] is mouse Teneurin 2 protein, soluble (UniProt Q9WTS5). As to the kind of experiment: cell-based binding assay (immunofluorescence, HEK293 cells). The settings on record: n = 12; surface murine Lphn1TL, soluble His-tagged murine Ten2 (ecto); parent: est. 27; read off a plot.
Assay [6] concerns the target chicken Ten2 ectodomain, soluble (UniProt Q9DER5). The description is as above. Conditions: n = 12, parent: est. 58, read off a plot.
In assay [7] the target is murine Lphn1 (ecto). Described as above. Conditions: n = 12; surface chicken Ten2LT, soluble His-tagged murine Lphn1 (ecto); read off a plot.
Assay [8] deals with murine Lphn2 (ecto) (UniProt Q8JZZ7). The description is as above. The settings on record: n = 12; surface chicken Ten2LT, soluble His-tagged murine Lphn2 (ecto); read off a plot.
The target in assay [9] is FLRT2 on K-562 cells (UniProt Q8BLU0). As to the kind of experiment: K-562 cell aggregation assay. Conditions: n = 3; parent: est. 47; read off a plot.
Assay [10] concerns the target Ten2 on K-562 cells (UniProt Q9DER5). As to the kind of experiment: K-562 cell aggregation assay. Conditions: n = 3; parent: est. 56; read off a plot.
Assay [11] has as its target T1, chicken Teneurin 2 ectodomain (gTen2 ecto) (chicken, UniProt Q9DER5 429-2802).
T1 construct: Teneurin-2 (Ten2), chicken (Gallus gallus), soluble ectodomain ('ecto'); analyte concentration was calculated as monomer; also called chicken Ten2 (ecto); source: HEK293 cells, purified (HisTrap, Superdex200 size exclusion)
As to the kind of experiment: SPR; Biacore T200, equilibrium binding at 25 °C, PBS + 0.005% polysorbate 20 pH 7.5; Latrophilin constructs biotinylated at a C-terminal Avi-tag and coupled to a streptavidin-coated CM5 chip (670-730 RU ecto, 220 RU Lec-Olf); Ten2 ectodomains injected; apparent KD from a 1:1 Langmuir fit, analyte concentration calculated as monomer; Teneurin is dimeric, values indicative only. Conditions: both partners purified.

Assay [12] concerns the target T2, murine Teneurin 2 ectodomain (mTen2 ecto) (mouse, UniProt Q9WTS5 401-2764).
T2 construct: Teneurin-2 (Ten2), mouse, soluble ectodomain ('ecto'); analyte concentration was calculated as monomer; also called mouse Ten2 (ecto); mouse Teneurin 2 protein; source: HEK293 cells, purified (HisTrap, Superdex200 size exclusion)
Described as above. Conditions: both partners purified.

murine Latrophilin 2 ectodomain (mLphn2 ecto) (mouse), sequence (Q8JZZ7 26-1487): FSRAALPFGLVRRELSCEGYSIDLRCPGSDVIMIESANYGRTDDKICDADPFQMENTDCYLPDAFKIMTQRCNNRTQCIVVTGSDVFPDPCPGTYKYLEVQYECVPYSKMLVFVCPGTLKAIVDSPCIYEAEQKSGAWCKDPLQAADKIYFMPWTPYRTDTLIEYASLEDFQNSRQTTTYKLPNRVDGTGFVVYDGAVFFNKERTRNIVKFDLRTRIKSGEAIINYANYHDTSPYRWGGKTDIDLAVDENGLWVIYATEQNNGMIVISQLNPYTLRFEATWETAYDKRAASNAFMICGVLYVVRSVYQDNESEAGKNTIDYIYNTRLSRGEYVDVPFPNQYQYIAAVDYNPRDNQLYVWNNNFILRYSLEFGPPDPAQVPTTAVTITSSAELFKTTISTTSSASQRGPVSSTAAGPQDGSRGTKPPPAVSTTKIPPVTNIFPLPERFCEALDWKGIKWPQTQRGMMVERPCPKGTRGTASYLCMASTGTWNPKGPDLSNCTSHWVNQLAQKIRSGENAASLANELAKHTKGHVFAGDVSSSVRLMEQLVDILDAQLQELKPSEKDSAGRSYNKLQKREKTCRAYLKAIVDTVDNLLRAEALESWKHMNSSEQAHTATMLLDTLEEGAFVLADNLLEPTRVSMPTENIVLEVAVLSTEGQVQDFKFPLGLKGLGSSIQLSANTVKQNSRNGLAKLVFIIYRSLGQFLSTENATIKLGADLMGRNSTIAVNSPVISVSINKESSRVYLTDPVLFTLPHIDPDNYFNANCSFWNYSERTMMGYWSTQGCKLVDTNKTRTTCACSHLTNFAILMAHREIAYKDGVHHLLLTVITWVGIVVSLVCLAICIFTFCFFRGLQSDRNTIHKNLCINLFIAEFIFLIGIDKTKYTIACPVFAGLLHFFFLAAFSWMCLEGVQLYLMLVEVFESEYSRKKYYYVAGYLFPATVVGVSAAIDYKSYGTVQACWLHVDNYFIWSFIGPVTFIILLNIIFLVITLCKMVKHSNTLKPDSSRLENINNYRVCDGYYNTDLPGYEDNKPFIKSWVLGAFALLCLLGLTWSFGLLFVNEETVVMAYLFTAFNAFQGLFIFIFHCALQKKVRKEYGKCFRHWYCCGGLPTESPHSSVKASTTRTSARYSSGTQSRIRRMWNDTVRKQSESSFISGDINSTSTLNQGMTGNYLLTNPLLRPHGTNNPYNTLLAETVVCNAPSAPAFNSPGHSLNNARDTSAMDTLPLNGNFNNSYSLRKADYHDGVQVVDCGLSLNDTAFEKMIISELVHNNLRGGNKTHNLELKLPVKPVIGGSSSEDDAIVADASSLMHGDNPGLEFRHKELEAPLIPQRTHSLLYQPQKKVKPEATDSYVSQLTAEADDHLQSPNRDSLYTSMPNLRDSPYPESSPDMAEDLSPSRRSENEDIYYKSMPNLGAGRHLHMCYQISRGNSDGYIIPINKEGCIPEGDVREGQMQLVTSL
murine Latrophilin 3 ectodomain (mLphn3 ecto) (mouse), sequence (Q80TS3 20-1537): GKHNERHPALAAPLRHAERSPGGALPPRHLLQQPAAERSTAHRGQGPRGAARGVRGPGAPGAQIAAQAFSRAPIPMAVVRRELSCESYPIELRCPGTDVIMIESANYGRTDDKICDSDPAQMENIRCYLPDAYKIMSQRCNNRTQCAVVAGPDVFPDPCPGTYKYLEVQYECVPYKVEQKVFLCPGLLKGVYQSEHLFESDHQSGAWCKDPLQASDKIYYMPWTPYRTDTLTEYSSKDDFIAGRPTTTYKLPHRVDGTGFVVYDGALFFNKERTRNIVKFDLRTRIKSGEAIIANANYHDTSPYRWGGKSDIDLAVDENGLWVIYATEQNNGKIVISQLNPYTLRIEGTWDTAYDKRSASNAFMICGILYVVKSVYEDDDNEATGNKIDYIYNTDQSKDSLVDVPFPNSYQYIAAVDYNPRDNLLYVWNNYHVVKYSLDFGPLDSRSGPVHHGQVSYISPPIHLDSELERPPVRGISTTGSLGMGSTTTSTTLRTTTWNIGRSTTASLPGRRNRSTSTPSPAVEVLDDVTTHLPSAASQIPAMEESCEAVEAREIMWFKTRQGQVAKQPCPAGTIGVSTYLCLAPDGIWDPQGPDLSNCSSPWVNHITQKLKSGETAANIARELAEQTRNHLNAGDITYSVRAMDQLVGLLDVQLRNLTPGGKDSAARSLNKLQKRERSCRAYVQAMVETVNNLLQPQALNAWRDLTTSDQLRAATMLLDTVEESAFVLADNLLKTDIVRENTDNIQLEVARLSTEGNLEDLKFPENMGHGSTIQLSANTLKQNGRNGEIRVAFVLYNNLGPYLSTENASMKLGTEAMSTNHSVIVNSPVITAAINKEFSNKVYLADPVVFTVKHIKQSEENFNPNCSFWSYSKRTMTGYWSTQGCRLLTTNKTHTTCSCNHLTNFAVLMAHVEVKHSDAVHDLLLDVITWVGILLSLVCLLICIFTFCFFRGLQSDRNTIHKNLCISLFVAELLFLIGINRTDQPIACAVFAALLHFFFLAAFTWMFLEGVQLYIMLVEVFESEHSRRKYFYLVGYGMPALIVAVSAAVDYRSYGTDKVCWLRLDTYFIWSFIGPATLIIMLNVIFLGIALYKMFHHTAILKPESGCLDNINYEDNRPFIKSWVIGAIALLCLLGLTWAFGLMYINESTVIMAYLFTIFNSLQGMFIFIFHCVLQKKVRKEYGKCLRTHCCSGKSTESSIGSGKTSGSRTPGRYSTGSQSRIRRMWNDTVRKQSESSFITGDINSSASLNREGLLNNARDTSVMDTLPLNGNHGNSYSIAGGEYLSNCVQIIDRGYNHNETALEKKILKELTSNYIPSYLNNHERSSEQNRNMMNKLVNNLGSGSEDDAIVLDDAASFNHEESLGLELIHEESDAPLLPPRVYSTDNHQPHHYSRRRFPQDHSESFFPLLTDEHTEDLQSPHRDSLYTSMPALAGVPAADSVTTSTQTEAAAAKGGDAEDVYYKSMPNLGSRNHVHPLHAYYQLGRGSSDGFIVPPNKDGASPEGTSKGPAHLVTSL
FLRT2 on K-562 cells, sequence (Q8BLU0 36-660): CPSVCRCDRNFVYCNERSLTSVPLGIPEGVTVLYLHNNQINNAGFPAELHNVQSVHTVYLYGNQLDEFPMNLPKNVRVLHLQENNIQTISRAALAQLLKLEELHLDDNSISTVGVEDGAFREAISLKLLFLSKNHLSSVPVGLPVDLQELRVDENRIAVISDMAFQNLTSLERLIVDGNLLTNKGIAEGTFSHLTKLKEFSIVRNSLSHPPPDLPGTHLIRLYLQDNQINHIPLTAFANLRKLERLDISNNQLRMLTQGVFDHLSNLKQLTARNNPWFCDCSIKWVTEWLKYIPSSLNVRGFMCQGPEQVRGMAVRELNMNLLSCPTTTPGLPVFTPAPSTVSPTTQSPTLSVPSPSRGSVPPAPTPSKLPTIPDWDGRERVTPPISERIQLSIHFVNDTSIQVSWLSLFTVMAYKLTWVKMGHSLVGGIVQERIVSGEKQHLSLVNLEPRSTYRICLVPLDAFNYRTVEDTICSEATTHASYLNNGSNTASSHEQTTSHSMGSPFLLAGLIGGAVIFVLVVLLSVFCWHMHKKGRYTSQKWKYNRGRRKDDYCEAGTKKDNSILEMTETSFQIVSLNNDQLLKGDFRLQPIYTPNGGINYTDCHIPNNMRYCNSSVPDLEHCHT

As for “Ten2 on K-562 cells (from UniProt Q9DER5) 1892N; K1894T”, the other: aggregation (%) in assay [1] is 5%.

With “murine Teneurin 2 ectodomain (mTen2 ecto) (from UniProt Q9WTS5 401-2764) (domain or fragment)”, the Kd is 35 nM in assay [2], 490 nM in [3] and 100 nM in [4].

With “murine Lphn1 (mVenus-tagged, surface of HEK293 cells) E39N”, the response came to 0% in assay [5] and 0% in assay [6] (surface murine Lphn1TL, soluble His-tagged chicken Ten2 (ecto)).

Take “murine Lphn1 (mVenus-tagged, surface of HEK293 cells) L39A; P51G; D54A; D67A; D72A”: in assay [6] (surface murine Lphn1TL2, soluble His-tagged chicken Ten2 (ecto)), the response was 1.5%.

On to “chicken Teneurin 2 ectodomain (gTen2 ecto) (from UniProt Q9DER5 429-2802) (domain or fragment)”, for which the values for the Kd in assay [2], in assay [3] and in assay [4] were 40 nM, 680 nM and 60 nM, respectively.

With “chicken Ten2, transmembrane construct at the surface of HEK293 cells (from UniProt Q9DER5) 1892N; K1894T”, the response worked out at 0% in assay [7] and 2% in assay [8].

As to “Lphn1 on K-562 cells (from UniProt Q80TR1) E39N”, the other: aggregation (%) in assay [9] came to 68%; in assay [10] it was 5%.

B1: murine Latrophilin 1 Lec-Olf domains (mLphn1 Lec-Olf) (domain or fragment, mouse, UniProt Q80TR1 29-395, looked up)
chain: GLPFGLMRRELACEGYPIELRCPGSDVIMVENANYGRTDDKICDADPFQMENVQCYLPDAFKIMSQRCNNRTQCVVVAGSDAFPDPCPGTYKYLEVQYDCVPYIFVCPGTLQKVLEPTSTHESEHQSGAWCKDPLQAGDRIYVMPWIPYRTDTLTEYASWEDYVAARHTTTYRLPNRVDGTGFVVYDGAVFYNKERTRNIVKYDLRTRIKSGETVINTANYHDTSPYRWGGKTDIDLAVDENGLWVIYATEGNNGRLVVSQLNPYTLRFEGTWETGYDKRSASNAFMVCGVLYVLRSVYVDDDSEAAGNRVDYAFNTNANREEPVSLAFPNPYQFVSSVDYNPRDNQLYVWNNYFVVRYSLEFGPPD
modifications: biotinylated enzymatically at the C-terminal Avi-tag
notes: The limits 29-395 are printed for the Lec-Olf construct that was crystallised; source: HEK293 cells; biotinylated enzymatically; not shown: Avi-tag, C-terminal, kept
B1: the Kd was 590 nM in assay [11] and 290 nM in assay [12].
